Data as given in patent US20250340646A1 (ELPIS BIOPHARMACEUTICALS, published 2025).

T1: recombinant His-tagged human IL-2Rβ (human, UniProt P14784 27-240, limits assumed)
T1 construct: also called IL-2Rβ-HIS; IL-15Rβ-HIS
T1 sequence (looked up): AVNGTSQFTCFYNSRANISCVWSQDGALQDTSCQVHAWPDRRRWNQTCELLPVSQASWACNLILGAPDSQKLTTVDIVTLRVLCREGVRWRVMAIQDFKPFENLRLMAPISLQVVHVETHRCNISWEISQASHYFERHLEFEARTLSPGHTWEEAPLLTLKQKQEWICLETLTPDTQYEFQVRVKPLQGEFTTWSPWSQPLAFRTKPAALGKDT


Key:
[1] = target: T2, full-length human PD-L1 on K562 cells (human, UniProt Q9NZQ7 19-290); assay: FACS, PD-L1/K562 cells
T2 construct: also called PD-L1/K562; cell surface human PD-L1
Experimental: Cells were spun down at 1200 rpm for 5 minutes at 4° C. to remove primary antibodies. Cells were then washed once with 200 μL of full medium per well. […] Samples were spun down at 1200 rpm for 5 minutes at 4° C. and washed twice with 200 μL of 1×PBS per well. Samples were reconstituted in 200 μL of 1×PBS and were read on Attune NxT cytometer.

[2] = target: T1, recombinant His-tagged human IL-2Rβ; assay: ELISA, coated His-tagged IL-2Rβ
Experimental: For monovalent IL-2 Fc-fusion proteins, recombinant His-tagged human IL-2Rα and IL-2Rβ were added in 25 μL of 1×PBS to wells of 384-well plate and incubated overnight at 4° C. to coat the plates. Plates were washed three times with 0.05% Tween20/1×PBS. Plates were blocked with 100 μL of SuperBlock for 1 hr at RT and then washed 3 times with 0.05% Tween20/1×PBS. IL-2 mutants were diluted in 0.05% Tween 20/1×PBS from 1000 nM to 0 nM and added to plates for 2 hrs at room temperature. Plates were then washed 6 times with 0.05% Tween20/1×PBS. Anti-HisTag-HRP was diluted 1:5000 in 0.05% Tween20/1×PBS and added to plates for 1 hr at RT. Plates were then washed 6 times with 0.05% Tween 20/1×PBS, and TMB was added to develop blue color. Reactions were stopped with 2N […] and light absorbance at 450 nm was read on a BioTek plate reader. Absorbance versus IL-2 concentration is graphed for human IL-2Rα and IL-2Rβ. […]

[3] = target: T1, recombinant His-tagged human IL-2Rβ; assay: SPR, Protein A capture, IL-2Rβ-HIS analyte
Experimental: (§1) The assay was run with Biacore T200 control software version 2.0. For each cycle, 1 μg/mL of anti-hPD-L1/IL-2 was captured for 60 seconds at flow rate of 10 μL/min on flow cell 2 in 1×HBSP buffer on Protein A sensor chip. […] The flow cells were then regenerated with Glycine pH2 for 60 seconds at flow rate of 30 μL/min. […] The specific binding response unit was derived from subtraction of binding to reference flow cell 1 from antibody captured flow cell 2.

[4] = target: T3, human PD-L1-HIS tagged recombinant protein (human, UniProt Q9NZQ7 19-238); assay: SPR, Protein A capture, PD-L1-HIS analyte
T3 construct: also called hPD-L1-HIS; PD-L1 HIS tagged protein
Experimental: as §1

[5] = target: biotinylated PD-L1 (Homo sapiens (Human), UniProt Q9NZQ7 19-238, biotinylated; site not stated); assay: ELISA, anti-human Fc capture, biotinylated PD-L1
Experimental: A 384 well plate was immobilized with anti-human Fc at final concentration of 2 μg/mL in 1×PBS in total volume of 25 μL per well. The plate was incubated overnight at 4C followed by blocking with 80 μL of superblock per well for 1 hour. […] In between each step, the plate was washed 3 times with 1×PBST in a plate washer. The plate was then developed with 25 μL of TMB substrate for 5 min and stopped by adding 25 μL of 2N sulfuric acid. The plate was read at OD450 nm Biotek plate reader and the binding correlation was plotted with Prism 8.1 software. The ELISA binding assays of the antibodies to IL-2Rα and IL-2Rβ receptors were performed as described in Example 6.

T3 sequence (Q9NZQ7 19-238 limits assumed): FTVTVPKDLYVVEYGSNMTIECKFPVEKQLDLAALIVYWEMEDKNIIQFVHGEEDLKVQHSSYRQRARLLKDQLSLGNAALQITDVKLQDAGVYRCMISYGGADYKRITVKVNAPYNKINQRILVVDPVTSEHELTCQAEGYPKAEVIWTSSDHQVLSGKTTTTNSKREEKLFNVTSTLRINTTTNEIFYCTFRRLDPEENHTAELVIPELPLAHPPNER
Chain of biotinylated PD-L1 (Q9NZQ7 19-238 limits assumed): as above
T2 sequence (Q9NZQ7 19-290 limits assumed): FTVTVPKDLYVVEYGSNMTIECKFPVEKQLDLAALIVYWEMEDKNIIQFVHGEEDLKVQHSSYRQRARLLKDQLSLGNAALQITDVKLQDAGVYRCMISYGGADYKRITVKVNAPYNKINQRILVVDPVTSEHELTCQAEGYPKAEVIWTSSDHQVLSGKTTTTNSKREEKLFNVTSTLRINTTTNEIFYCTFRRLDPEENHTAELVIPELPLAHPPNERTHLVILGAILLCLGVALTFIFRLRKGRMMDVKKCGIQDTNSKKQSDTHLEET

Binder	EC50 [1] [nM]	EC50 [2] [nM]	Kd [3] [nM]	Kd [4] [nM]	EC50 [5] [nM]	further results
2018EP161-F08 scFv (scFv, V domains shown) VH: not shown VL: DIVMTQSPSSLSASVGDRVTITCRASQTVSTYINWYQQRSGKGPKLLIFDASRLQSGAPSRFSGSGSGTEFTLTITSLQPDDSATYYCQQSYRIPLSFGGGTKVEIR	7.72	–	–	–	–	–
IL-2/anti-PD-L1 scFv Fc EP291/EP326 (bispecific antibody, IL2 EP003) chain 1: not shown chain 2: QVQLVQSGAEVKKPGSSVKVSCKASGGTFSSYAISWVRQAPGQGLEWMGGIIPIFGTANYAQKFQGRVTITADESTSTAYMELSSLRSEDTAVYYCARDKWYGSAWRGDYWGQGTLVTVSSGGGGSGGGGSGGGGSQSVLTQPPSASGTPGQRVTISCSGSYSNIGSNFVNWYQQLPGTAPKLLIHFNNQRPSGVPDRFSGSRSGTSASLAISGLQSEDEADYFCSTWDDSLKGPIFGGGTKLTVLDKTHTCPPCPAPEAAGGPSVFLFPPKPKDTLMISRTPEVTCVVVDVSHEDPEVKFNWYVDGVEVHNAKTKPREEQYNSTYRVVSVLTVLHQDWLNGKEYKCKVSNKALGAPIEKTISKAKGQPREPQVCTLPPSRDELTKNQVSLSCAVKGFYPSDIAVEWESNGQPENNYKTTPPVLDSDGSFKLVSKLTVDKSRWQQGNVFSCSVMHEALHNHYTQKSLSLSPGK	–	0.552	1.87	0.34	0.246	–
IL-2/anti-PD-L1 scFv Fc EP417/EP326 (bispecific antibody, IL2 EP339) chain 1: not shown chain 2: QVQLVQSGAEVKKPGSSVKVSCKASGGTFSSYAISWVRQAPGQGLEWMGGIIPIFGTANYAQKFQGRVTITADESTSTAYMELSSLRSEDTAVYYCARDKWYGSAWRGDYWGQGTLVTVSSGGGGSGGGGSGGGGSQSVLTQPPSASGTPGQRVTISCSGSYSNIGSNFVNWYQQLPGTAPKLLIHFNNQRPSGVPDRFSGSRSGTSASLAISGLQSEDEADYFCSTWDDSLKGPIFGGGTKLTVLDKTHTCPPCPAPEAAGGPSVFLFPPKPKDTLMISRTPEVTCVVVDVSHEDPEVKFNWYVDGVEVHNAKTKPREEQYNSTYRVVSVLTVLHQDWLNGKEYKCKVSNKALGAPIEKTISKAKGQPREPQVCTLPPSRDELTKNQVSLSCAVKGFYPSDIAVEWESNGQPENNYKTTPPVLDSDGSFKLVSKLTVDKSRWQQGNVFSCSVMHEALHNHYTQKSLSLSPGK	–	0.515	21.9	0.429	0.188	–
2018EP164-F04 scFv (scFv, V domains shown) VH: QVQLQQWGAGLLKPSETLSLTCAVYGGSFSGYYWSWIRQPPGKGLEWIGEINHSGSTNYNPSLKSRVTISVDTSKNQFSLKLSSVTAADTAVYYCARGRRLRYFDWAAYNWFDPWGQGTLVTVSS VL: QSALTQDPAVSVALGQTVRITCQGDSLRSHYASWYQQKPGQAPVVVVYDNSDRPSGIPDRFSGSNSGNTATLTISRVEVGDEADYYCQVWDSSSDHYVFGTGTKV	< 1	–	–	–	–	–
2018EP173-H11 scFv (scFv, V domains shown, not shown: scFv linker and domain order of the library scFv) VH: QVQLVQSGGGLVKPGGSLRLSCAASGFTFSSYSMNWVRQAPGKGLEWVSSISSSSSYIYYADSVKGRFTISRDNAKNSLYLQMNSLKAEDTAVYYCARDSLQWLALDYWGQGTLVTVSS VL: QPVLTQPPSVSVAPGETATITCGGNNIGRKSVHWYLQKPGQAPVLVIGHDTDRPSGIPARFSGSNSGNTATLTINRVEAGDEADYYCQVWDTSGHHYVFGTGTKVTVL	5.1	–	–	–	–	–
2018EP172-F10 scFv (scFv, V domains shown) VH: QMQLVQSGAEVKKPGSSVKVSCKASGGTFSSYAISWVRQAPGQGLEWMGGIIPIFGTANYAQKFQGRVTITADESTSTAYMELSSLRSEDTAVYYCARDKGYGSGWRGDYWGQGTLVTVSS VL: QSVLTQPPSASGTPGQRVTISCSGSYSNIGSNFVNWYQQLPGTAPKLLIHFDNQRPSGVPDRFSGSRSGTSASLAISGLQSEDEADYFCSTWDDSLKGPIFGGGTKLTVL	< 1	–	–	–	–	–

More lines, main results first:

EC50 [1] [nM]	EC50 [2] [nM]	Kd [3] [nM]	Kd [4] [nM]	EC50 [5] [nM]	Binder	further results
–	1.24	26.5	0.39	0.298	IL-2/anti-PD-L1 scFv Fc EP416/EP326 (bispecific antibody, IL2 EP338) chain 1: not shown chain 2: QVQLVQSGAEVKKPGSSVKVSCKASGGTFSSYAISWVRQAPGQGLEWMGGIIPIFGTANYAQKFQGRVTITADESTSTAYMELSSLRSEDTAVYYCARDKWYGSAWRGDYWGQGTLVTVSSGGGGSGGGGSGGGGSQSVLTQPPSASGTPGQRVTISCSGSYSNIGSNFVNWYQQLPGTAPKLLIHFNNQRPSGVPDRFSGSRSGTSASLAISGLQSEDEADYFCSTWDDSLKGPIFGGGTKLTVLDKTHTCPPCPAPEAAGGPSVFLFPPKPKDTLMISRTPEVTCVVVDVSHEDPEVKFNWYVDGVEVHNAKTKPREEQYNSTYRVVSVLTVLHQDWLNGKEYKCKVSNKALGAPIEKTISKAKGQPREPQVCTLPPSRDELTKNQVSLSCAVKGFYPSDIAVEWESNGQPENNYKTTPPVLDSDGSFKLVSKLTVDKSRWQQGNVFSCSVMHEALHNHYTQKSLSLSPGK	–
–	0.51	–	–	0.212	IL-2/anti-PD-L1 scFv Fc EP414/EP326 (bispecific antibody, IL2 EP003 carrying K35L/R38D/F42R) chain 1: not shown chain 2: QVQLVQSGAEVKKPGSSVKVSCKASGGTFSSYAISWVRQAPGQGLEWMGGIIPIFGTANYAQKFQGRVTITADESTSTAYMELSSLRSEDTAVYYCARDKWYGSAWRGDYWGQGTLVTVSSGGGGSGGGGSGGGGSQSVLTQPPSASGTPGQRVTISCSGSYSNIGSNFVNWYQQLPGTAPKLLIHFNNQRPSGVPDRFSGSRSGTSASLAISGLQSEDEADYFCSTWDDSLKGPIFGGGTKLTVLDKTHTCPPCPAPEAAGGPSVFLFPPKPKDTLMISRTPEVTCVVVDVSHEDPEVKFNWYVDGVEVHNAKTKPREEQYNSTYRVVSVLTVLHQDWLNGKEYKCKVSNKALGAPIEKTISKAKGQPREPQVCTLPPSRDELTKNQVSLSCAVKGFYPSDIAVEWESNGQPENNYKTTPPVLDSDGSFKLVSKLTVDKSRWQQGNVFSCSVMHEALHNHYTQKSLSLSPGK	–
–	0.613	–	–	0.206	IL-2/anti-PD-L1 scFv Fc EP419/EP326 (bispecific antibody, IL2 EP343) chain 1: not shown chain 2: QVQLVQSGAEVKKPGSSVKVSCKASGGTFSSYAISWVRQAPGQGLEWMGGIIPIFGTANYAQKFQGRVTITADESTSTAYMELSSLRSEDTAVYYCARDKWYGSAWRGDYWGQGTLVTVSSGGGGSGGGGSGGGGSQSVLTQPPSASGTPGQRVTISCSGSYSNIGSNFVNWYQQLPGTAPKLLIHFNNQRPSGVPDRFSGSRSGTSASLAISGLQSEDEADYFCSTWDDSLKGPIFGGGTKLTVLDKTHTCPPCPAPEAAGGPSVFLFPPKPKDTLMISRTPEVTCVVVDVSHEDPEVKFNWYVDGVEVHNAKTKPREEQYNSTYRVVSVLTVLHQDWLNGKEYKCKVSNKALGAPIEKTISKAKGQPREPQVCTLPPSRDELTKNQVSLSCAVKGFYPSDIAVEWESNGQPENNYKTTPPVLDSDGSFKLVSKLTVDKSRWQQGNVFSCSVMHEALHNHYTQKSLSLSPGK	–
–	0.43	3.32	0.19	0.108	IL-2/anti-PD-L1 scFv Fc EP297/EP326 (bispecific antibody, IL2 EP001) chain 1: not shown chain 2: QVQLVQSGAEVKKPGSSVKVSCKASGGTFSSYAISWVRQAPGQGLEWMGGIIPIFGTANYAQKFQGRVTITADESTSTAYMELSSLRSEDTAVYYCARDKWYGSAWRGDYWGQGTLVTVSSGGGGSGGGGSGGGGSQSVLTQPPSASGTPGQRVTISCSGSYSNIGSNFVNWYQQLPGTAPKLLIHFNNQRPSGVPDRFSGSRSGTSASLAISGLQSEDEADYFCSTWDDSLKGPIFGGGTKLTVLDKTHTCPPCPAPEAAGGPSVFLFPPKPKDTLMISRTPEVTCVVVDVSHEDPEVKFNWYVDGVEVHNAKTKPREEQYNSTYRVVSVLTVLHQDWLNGKEYKCKVSNKALGAPIEKTISKAKGQPREPQVCTLPPSRDELTKNQVSLSCAVKGFYPSDIAVEWESNGQPENNYKTTPPVLDSDGSFKLVSKLTVDKSRWQQGNVFSCSVMHEALHNHYTQKSLSLSPGK	koff [3]: 0.00854 s⁻¹; kon [3]: 2.57e+06 M⁻¹ s⁻¹; koff [4]: 0.000149 s⁻¹; kon [4]: 782000 M⁻¹ s⁻¹
